Reference: article PMC12260524, “Identification of a VPS29 isoform with restricted association to Retriever and Retromer accessory proteins through autoinhibition” (Proceedings of the National Academy of Sciences of the …, 2025)

Molecular target: GST-VPS29C (human) (UniProt F8VXU5)
Assay: ITC; 300 μM peptide titrated into 10 μM GST-tagged VPS29C, 25 °C, 50 mM Tris-HCl pH 7.5, 200 mM NaCl, 2 mM β-mercaptoethanol; single-site model

Kd: > 100 µM
Substance: VPS35L 28 to 37 (from UniProt Q7Z3J2 28-37) (peptide)
